B1: Azoarcus group I ribozyme (parent)
chain: GUGCCUUGCGCCGGGAAACCACGCAAGGGAUGGUGUCAAAUUCGGCGAAACCUAAGCGCCCGCCCGGGCGUAUGGCAACGCCGAGCCAAGCUUCGGCGCCUGCGCCGAUGAAGGUGUAGAGACUAGACGGCACCCACCUAAGGCAAACGCUAUGGUGAAGGCAUAGUCCAGGGAGUGGCGAAAGUCACACAAACCGG

Variants of: B1
Assay: reverse-splicing fitness (ratio to wild type); higher = more active; in vitro selection; Mg2+ level not given
How it was run: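 An in vitro group I ribozyme library with randomized positions was T7-transcribed and gel-purified. In triplicate, 10 pmol RNA in EPPS pH 7.5 was reacted with 50 pmoles of a 30-nt RNA substrate for 1 h at 37 °C across several added MgCl2 levels (1–48 mM), then stopped with EDTA. Products were reverse transcribed from a substrate-complementary primer, PCR-amplified and sequenced (HiSeq 4000). Fitness is a variant's read proportion after selection over that before, normalised to wild type.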

| Variant | reverse-splicing fitness |
| --- | --- |
| GUGCCUUGCGCCGGGAAACCACGCAAGGGAUGGUGUCAAAUUCGGCGAAACCUAAGCGCCCGCCCGGGCGUAUGGCAACGCAGAGCCAAGCUUCGGCGCCUGCGCCGAUGCAGGUGUAGAGACUAGACGGCACCCACCUAAGGCGAACGGUAUGGUGAAGGCAUAGUCUAGGGAGAGGCGAAAGUCACACAAACCGG | 0.0112 |
| GUGCCUUGCGCCGGGAAACCACGCAAGGGAUGGUGUCAAAUUCGGCGAAACCUAAGCGCCCGCCCGGGCGUAUGGCAACGCAGAGCCAAGCUUCGGCGCCUGCGCCGAUGCAGGUGUAGAGACUAGACGGCACCCACCUAAGGCGAACGGUAUGGUGAAGGCAUAGUCUAGGGAGCGGCGAAAGUCACACAAACCGG | 0.0116 |
| GUGCCUUGCGCCGGGAAACCACGCAAGGGAUGGUGUCAAAUUCGGCGAAACCUAAGCGCCCGCCCGGGCGUAUGGCAACGCAGAGCCAAGCUUCGGCGCCUGCGCCGAUGCAGGUGUAGAGACUAGACGGCACCCACCUAAGGCGAACGGUAUGGUGAAGGCAUAGUCUAGGGAGGGGCGAAAGUCACACAAACCGG | 0.00666 |
| GUGCCUUGCGCCGGGAAACCACGCAAGGGAUGGUGUCAAAUUCGGCGAAACCUAAGCGCCCGCCCGGGCGUAUGGCAACGCAGAGCCAAGCUUCGGCGCCUGCGCCGAUGCAGGUGUAGAGACUAGACGGCACCCACCUAAGGCGAACGAUAUGGUGAAGGCAUAGUCCAGGGAGUGGCGAAAGUCACACAAACCGG | 0.0316 |
| GUGCCUUGCGCCGGGAAACCACGCAAGGGAUGGUGUCAAAUUCGGCGAAACCUAAGCGCCCGCCCGGGCGUAUGGCAACGCAGAGCCAAGCUUCGGCGCCUGCGCCGAUGCAGGUGUAGAGACUAGACGGCACCCACCUAAGGCGAACGGUAUGGUGAAGGCAUAGUCCAGGGAGUGGCGAAAGUCACACAAACCGG | 0.0238 |
| GUGCCUUGCGCCGGGAAACCACGCAAGGGAUGGUGUCAAAUUCGGCGAAACCUAAGCGCCCGCCCGGGCGUAUGGCAACGCAGAGCCAAGCUUCGGCGCCUGCGCCGAUGCAGGUGUAGAGACUAGACGGCACCCACCUAAGGCGAACGAUAUGGUGAAGGCAUAGUCUAGGGAGUGGCGAAAGUCACACAAACCGG | 0.0111 |
| GUGCCUUGCGCCGGGAAACCACGCAAGGGAUGGUGUCAAAUUCGGCGAAACCUAAGCGCCCGCCCGGGCGUAUGGCAACGCAGAGCCAAGCUUCGGCGCCUGCGCCGAUGCAGGUGUAGAGACUAGACGGCACCCACCUAAGGCGAACGAUAUGGUGAAGGCAUAGUCGAGGGAGUGGCGAAAGUCACACAAACCGG | 0.00824 |
| GUGCCUUGCGCCGGGAAACCACGCAAGGGAUGGUGUCAAAUUCGGCGAAACCUAAGCGCCCGCCCGGGCGUAUGGCAACGCAGAGCCAAGCUUCGGCGCCUGCGCCGAUGCAGGUGUAGAGACUAGACGGCACCCACCUAAGGCGAACGAUAUGGUGAAGGCAUAGUCAAGGGAGUGGCGAAAGUCACACAAACCGG | 0.011 |
| GUGCCUUGCGCCGGGAAACCACGCAAGGGAUGGUGUCAAAUUCGGCGAAACCUAAGCGCCCGCCCGGGCGUAUGGCAACGCAGAGCCAAGCUUCGGCGCCUGCGCCGAUGCAGGUGUAGAGACUAGACGGCACCCACCUAAGGCGAACGGUAUGGUGAAGGCAUAGUCGAGGGAGGGGCGAAAGUCACACAAACCGG | 0.00568 |
| GUGCCUUGCGCCGGGAAACCACGCAAGGGAUGGUGUCAAAUUCGGCGAAACCUAAGCGCCCGCCCGGGCGUAUGGCAACGCAGAGCCAAGCUUCGGCGCCUGCGCCGAUGCAGGUGUAGAGACUAGACGGCACCCACCUAAGGCGAACGGUAUGGUGAAGGCAUAGUCGAGGGAGCGGCGAAAGUCACACAAACCGG | 0.0128 |
| GUGCCUUGCGCCGGGAAACCACGCAAGGGAUGGUGUCAAAUUCGGCGAAACCUAAGCGCCCGCCCGGGCGUAUGGCAACGCAGAGCCAAGCUUCGGCGCCUGCGCCGAUGCAGGUGUAGAGACUAGACGGCACCCACCUAAGGCGAACGGUAUGGUGAAGGCAUAGUCGAGGGAGAGGCGAAAGUCACACAAACCGG | 0.00988 |
| GUGCCUUGCGCCGGGAAACCACGCAAGGGAUGGUGUCAAAUUCGGCGAAACCUAAGCGCCCGCCCGGGCGUAUGGCAACGCAGAGCCAAGCUUCGGCGCCUGCGCCGAUGCAGGUGUAGAGACUAGACGGCACCCACCUAAGGCGAACGGUAUGGUGAAGGCAUAGUCAAGGGAGGGGCGAAAGUCACACAAACCGG | 0.00877 |
| GUGCCUUGCGCCGGGAAACCACGCAAGGGAUGGUGUCAAAUUCGGCGAAACCUAAGCGCCCGCCCGGGCGUAUGGCAACGCAGAGCCAAGCUUCGGCGCCUGCGCCGAUGCAGGUGUAGAGACUAGACGGCACCCACCUAAGGCGAACGGUAUGGUGAAGGCAUAGUCAAGGGAGCGGCGAAAGUCACACAAACCGG | 0.0134 |
| GUGCCUUGCGCCGGGAAACCACGCAAGGGAUGGUGUCAAAUUCGGCGAAACCUAAGCGCCCGCCCGGGCGUAUGGCAACGCAGAGCCAAGCUUCGGCGCCUGCGCCGAUGCAGGUGUAGAGACUAGACGGCACCCACCUAAGGCGAACGGUAUGGUGAAGGCAUAGUCAAGGGAGAGGCGAAAGUCACACAAACCGG | 0.0119 |
| GUGCCUUGCGCCGGGAAACCACGCAAGGGAUGGUGUCAAAUUCGGCGAAACCUAAGCGCCCGCCCGGGCGUAUGGCAACGCAGAGCCAAGCUUCGGCGCCUGCGCCGAUGCAGGUGUAGAGACUAGACGGCACCCACCUAAGGCGAACGAUAUGGUGAAGGCAUAGUCAAGGGAGCGGCGAAAGUCACACAAACCGG | 0.0191 |
| GUGCCUUGCGCCGGGAAACCACGCAAGGGAUGGUGUCAAAUUCGGCGAAACCUAAGCGCCCGCCCGGGCGUAUGGCAACGCAGAGCCAAGCUUCGGCGCCUGCGCCGAUGCAGGUGUAGAGACUAGACGGCACCCACCUAAGGCGAACGAUAUGGUGAAGGCAUAGUCAAGGGAGAGGCGAAAGUCACACAAACCGG | 0.0172 |
| GUGCCUUGCGCCGGGAAACCACGCAAGGGAUGGUGUCAAAUUCGGCGAAACCUAAGCGCCCGCCCGGGCGUAUGGCAACGCAGAGCCAAGCUUCGGCGCCUGCGCCGAUGCAGGUGUAGAGACUAGACGGCACCCACCUAAGGCGAACGAUAUGGUGAAGGCAUAGUCAAGGGAGGGGCGAAAGUCACACAAACCGG | 0.0091 |
| GUGCCUUGCGCCGGGAAACCACGCAAGGGAUGGUGUCAAAUUCGGCGAAACCUAAGCGCCCGCCCGGGCGUAUGGCAACGCAGAGCCAAGCUUCGGCGCCUGCGCCGAUGCAGGUGUAGAGACUAGACGGCACCCACCUAAGGCGAACGAUAUGGUGAAGGCAUAGUCUAGGGAGCGGCGAAAGUCACACAAACCGG | 0.0158 |
| GUGCCUUGCGCCGGGAAACCACGCAAGGGAUGGUGUCAAAUUCGGCGAAACCUAAGCGCCCGCCCGGGCGUAUGGCAACGCAGAGCCAAGCUUCGGCGCCUGCGCCGAUGCAGGUGUAGAGACUAGACGGCACCCACCUAAGGCGAACGAUAUGGUGAAGGCAUAGUCUAGGGAGAGGCGAAAGUCACACAAACCGG | 0.0149 |
| GUGCCUUGCGCCGGGAAACCACGCAAGGGAUGGUGUCAAAUUCGGCGAAACCUAAGCGCCCGCCCGGGCGUAUGGCAACGCAGAGCCAAGCUUCGGCGCCUGCGCCGAUGCAGGUGUAGAGACUAGACGGCACCCACCUAAGGCGAACGAUAUGGUGAAGGCAUAGUCUAGGGAGGGGCGAAAGUCACACAAACCGG | 0.00882 |
| GUGCCUUGCGCCGGGAAACCACGCAAGGGAUGGUGUCAAAUUCGGCGAAACCUAAGCGCCCGCCCGGGCGUAUGGCAACGCAGAGCCAAGCUUCGGCGCCUGCGCCGAUGCAGGUGUAGAGACUAGACGGCACCCACCUAAGGCGAACGGUAUGGUGAAGGCAUAGUCCAGGGAGAGGCGAAAGUCACACAAACCGG | 0.00936 |
| GUGCCUUGCGCCGGGAAACCACGCAAGGGAUGGUGUCAAAUUCGGCGAAACCUAAGCGCCCGCCCGGGCGUAUGGCAACGCAGAGCCAAGCUUCGGCGCCUGCGCCGAUGCAGGUGUAGAGACUAGACGGCACCCACCUAAGGCGAACGGUAUGGUGAAGGCAUAGUCAAGGGAGUGGCGAAAGUCACACAAACCGG | 0.00852 |
| GUGCCUUGCGCCGGGAAACCACGCAAGGGAUGGUGUCAAAUUCGGCGAAACCUAAGCGCCCGCCCGGGCGUAUGGCAACGCAGAGCCAAGCUUCGGCGCCUGCGCCGAUGCAGGUGUAGAGACUAGACGGCACCCACCUAAGGCGAACGGUAUGGUGAAGGCAUAGUCGAGGGAGUGGCGAAAGUCACACAAACCGG | 0.00662 |
| GUGCCUUGCGCCGGGAAACCACGCAAGGGAUGGUGUCAAAUUCGGCGAAACCUAAGCGCCCGCCCGGGCGUAUGGCAACGCAGAGCCAAGCUUCGGCGCCUGCGCCGAUGCAGGUGUAGAGACUAGACGGCACCCACCUAAGGCGAACGGUAUGGUGAAGGCAUAGUCUAGGGAGUGGCGAAAGUCACACAAACCGG | 0.00803 |
| GUGCCUUGCGCCGGGAAACCACGCAAGGGAUGGUGUCAAAUUCGGCGAAACCUAAGCGCCCGCCCGGGCGUAUGGCAACGCAGAGCCAAGCUUCGGCGCCUGCGCCGAUGCAGGUGUAGAGACUAGACGGCACCCACCUAAGGCGAACGAUAUGGUGAAGGCAUAGUCCAGGGAGAGGCGAAAGUCACACAAACCGG | 0.0153 |
| GUGCCUUGCGCCGGGAAACCACGCAAGGGAUGGUGUCAAAUUCGGCGAAACCUAAGCGCCCGCCCGGGCGUAUGGCAACGCAGAGCCAAGCUUCGGCGCCUGCGCCGAUGCAGGUGUAGAGACUAGACGGCACCCACCUAAGGCGAACGAUAUGGUGAAGGCAUAGUCCAGGGAGGGGCGAAAGUCACACAAACCGG | 0.00922 |
| GUGCCUUGCGCCGGGAAACCACGCAAGGGAUGGUGUCAAAUUCGGCGAAACCUAAGCGCCCGCCCGGGCGUAUGGCAACGCAGAGCCAAGCUUCGGCGCCUGCGCCGAUGCAGGUGUAGAGACUAGACGGCACCCACCUAAGGCGAACGAUAUGGUGAAGGCAUAGUCCAGGGAGCGGCGAAAGUCACACAAACCGG | 0.0335 |
| GUGCCUUGCGCCGGGAAACCACGCAAGGGAUGGUGUCAAAUUCGGCGAAACCUAAGCGCCCGCCCGGGCGUAUGGCAACGCAGAGCCAAGCUUCGGCGCCUGCGCCGAUGCAGGUGUAGAGACUAGACGGCACCCACCUAAGGCGAACGAUAUGGUGAAGGCAUAGUCGAGGGAGGGGCGAAAGUCACACAAACCGG | 0.0087 |
| GUGCCUUGCGCCGGGAAACCACGCAAGGGAUGGUGUCAAAUUCGGCGAAACCUAAGCGCCCGCCCGGGCGUAUGGCAACGCAGAGCCAAGCUUCGGCGCCUGCGCCGAUGCAGGUGUAGAGACUAGACGGCACCCACCUAAGGCGAACGAUAUGGUGAAGGCAUAGUCGAGGGAGCGGCGAAAGUCACACAAACCGG | 0.0253 |
| GUGCCUUGCGCCGGGAAACCACGCAAGGGAUGGUGUCAAAUUCGGCGAAACCUAAGCGCCCGCCCGGGCGUAUGGCAACGCAGAGCCAAGCUUCGGCGCCUGCGCCGAUGCAGGUGUAGAGACUAGACGGCACCCACCUAAGGCGAACGAUAUGGUGAAGGCAUAGUCGAGGGAGAGGCGAAAGUCACACAAACCGG | 0.0152 |

— the RNAGym collection of RNA variant scans (doi:10.1093/molbev/msab373)
